Numbering of substitutions follows the chain as printed. Numbers in names are those of the source.
Assays:
[1] = biological target: atToc159-A864R (expressed from CaMV35S::atTOC159-A864R in ppi2 plants, A864R:ppi2) (Arabidopsis thaliana) (UniProt O81283); assay: cross-linking
[2] = substrate: Nc1nc2c(ncn2[C@@H]2O[C@H](COP(=O)(O)OP(=O)(O)OP(=O)(O)O)[C@@H](O)[C@H]2O)c(=O)[nH]1; assay: GTP hydrolysis assay, immunoprecipitated protein on Sepharose beads; type: biochemical, Arabidopsis thaliana; details: antibody/protein A-Sepharose-bound receptor
[3] = substrate: Nc1nc2c(ncn2[C@@H]2O[C@H](COP(=O)(O)OP(=O)(O)OP(=O)(O)O)[C@@H](O)[C@H]2O)c(=O)[nH]1; assay: GTP hydrolysis assay, purified soluble G-domain; type: biochemical, Arabidopsis thaliana

## preSSu ([35S]-labeled chloroplast preprotein) (natural protein)
[1]
  fold of coimmunoprecipitated preSSu against wild-type atToc159: 3 fold

B1: atToc159 (full-length) (Arabidopsis thaliana) (protein)
chain: MDSKSVTPEPTNPFYASSGQSGKTYASVVAAAAAAAADKEDGGAVSSAKELDSSSEAVSGNSDKVGADDLSDSEKEKPNLVGDGKVSDEVDGSLKEDSTTPEATPKPEVVSGETIGVDDVSSLSPKPEAVSDGVGVVEENKKVKEDVEDIKDDGESKIENGSVDVDVKQASTDGESESKVKDVEEEDVGTKKDDEGESELGGKVDVDDKSDNVIEEEGVELTDKGDVIVNSSPVESVHVDVAKPGVVVVGDAEGSEELKINADAETLEVANKFDQIGDDDSGEFEPVSDKAIEEVEEKFTSESDSIADSSKLESVDTSAVEPEVVAAESGSEPKDVEKANGLEKGMTYAEVIKAASAVADNGTKEEESVLGGIVDDAEEGVKLNNKGDFVVDSSAIEAVNVDVAKPGVVVVGDVEVSEVLETDGNIPDVHNKFDPIGQGEGGEVELESDKATEEGGGKLVSEGDSMVDSSVVDSVDADINVAEPGVVVVGAAKEAVIKEDDKDDEVDKTISNIEEPDDLTAAYDGNFELAVKEISEAAKVEPDEPKVGVEVEELPVSESLKVGSVDAEEDSIPAAESQFEVRKVVEGDSAEEDENKLPVEDIVSSREFSFGGKEVDQEPSGEGVTRVDGSESEEETEEMIFGSSEAAKQFLAELEKASSGIEAHSDEANISNNMSDRIDGQIVTDSDEDVDTEDEGEEKMFDTAALAALLKAATGGGSSEGGNFTITSQDGTKLFSMDRPAGLSSSLRPLKPAAAPRANRSNIFSNSNVTMADETEINLSEEEKQKLEKLQSLRVKFLRLLQRLGHSAEDSIAAQVLYRLALLAGRQAGQLFSLDAAKKKAVESEAEGNEELIFSLNILVLGKAGVGKSATINSILGNQIASIDAFGLSTTSVREISGTVNGVKITFIDTPGLKSAAMDQSTNAKMLSSVKKVMKKCPPDIVLYVDRLDTQTRDLNNLPLLRTITASLGTSIWKNAIVTLTHAASAPPDGPSGTPLSYDVFVAQCSHIVQQSIGQAVGDLRLMNPSLMNPVSLVENHPLCRKNREGVKVLPNGQTWRSQLLLLCYSLKVLSETNSLLRPQEPLDHRKVFGFRVRSPPLPYLLSWLLQSRAHPKLPGDQGGDSVDSDIEIDDVSDSEQEDGEDDEYDQLPPFKPLRKTQLAKLSNEQRKAYFEEYDYRVKLLQKKQWREELKRMKEMKKNGKKLGESEFGYPGEEDDPENGAPAAVPVPLPDMVLPPSFDSDNSAYRYRYLEPTSQLLTRPVLDTHGWDHDCGYDGVNAEHSLALASRFPATATVQVTKDKKEFNIHLDSSVSAKHGENGSTMAGFDIQNVGKQLAYVVRGETKFKNLRKNKTTVGGSVTFLGENIATGVKLEDQIALGKRLVLVGSTGTMRSQGDSAYGANLEVRLREADFPIGQDQSSFGLSLVKWRGDLALGANLQSQVSVGRNSKIALRAGLNNKMSGQITVRTSSSDQLQIALTAILPIAMSIYKSIRPEATNDKYSMY
[2]
  Km: 3.2 ± 0.34 µM
  kcat: 0.000233 ± 3.67e-05 s⁻¹

B2: atToc159 (full-length) (Arabidopsis thaliana; A864R) (protein)
chain: B1 chain with A864R
[2]
  Km: 1.9 ± 0.30 µM
  kcat: 7e-05 ± 1.7e-06 s⁻¹

B3: atToc159 G-domain (atToc159G) (Arabidopsis thaliana) (protein)
chain: IFSLNILVLGKAGVGKSATINSILGNQIASIDAFGLSTTSVREISGTVNGVKITFIDTPGLKSAAMDQSTNAKMLSSVKKVMKKCPPDIVLYVDRLDTQTRDLNNLPLLRTITASLGTSIWKNAIVTLTHAASAPPDGPSGTPLSYDVFVAQCSHIVQQSIGQAVGDLRLMNPSLMNPVSLVENHPLCRKNREGVKVLPNGQTWRSQLLLLCYSLKVLSETNSLLRPQEPLDHRK
[3]
  Km: 9.0 ± 1.35 µM
  kcat: 0.000317 ± 2.5e-05 s⁻¹

— publication PMC2557045
